Values quoted from earlier work, collected in PMC2879597.
pKd: −log10 of the molar value.

Target: hIL-10/sIL-10R1 complex (Homo sapiens) (UniProt P22301)
Sequence (P22301 19-178, chain 1 of 2): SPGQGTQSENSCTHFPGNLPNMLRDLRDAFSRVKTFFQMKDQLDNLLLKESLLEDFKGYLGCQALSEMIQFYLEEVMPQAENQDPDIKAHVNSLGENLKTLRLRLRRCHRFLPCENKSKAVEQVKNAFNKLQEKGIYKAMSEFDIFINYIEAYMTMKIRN
Sequence (Q13651 22-235, chain 2 of 2, further chain): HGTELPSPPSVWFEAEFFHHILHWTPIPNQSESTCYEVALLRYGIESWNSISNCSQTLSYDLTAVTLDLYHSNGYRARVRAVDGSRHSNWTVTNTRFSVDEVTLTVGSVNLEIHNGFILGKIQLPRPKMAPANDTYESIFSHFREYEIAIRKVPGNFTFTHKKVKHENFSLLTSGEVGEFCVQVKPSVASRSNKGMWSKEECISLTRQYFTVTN

Chain of sIL-10R2 ECD (Q08334 20-220): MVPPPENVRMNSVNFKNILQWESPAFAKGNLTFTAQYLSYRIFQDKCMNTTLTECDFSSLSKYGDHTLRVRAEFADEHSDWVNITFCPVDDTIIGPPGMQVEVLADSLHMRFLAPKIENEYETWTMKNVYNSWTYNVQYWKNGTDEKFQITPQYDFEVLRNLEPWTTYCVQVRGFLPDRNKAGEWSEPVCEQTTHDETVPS

pKd: 3.60
Substance: sIL-10R2 ECD (from UniProt Q08334)
